# Numbered stars: 1 amine (or outer) side, 2 acyl side, 3 side chain; on linkers, the order of the positions; unused ones are H or OH. Square brackets hold non-standard residues; d marks the D form. Side chains are listed from the residue outwards. Ends that are not written are not given here. * marks the point of attachment. C18 diacid = O=C(O)CCCCCCCCCCCCCCCCC(=O)*; γGlu = O=C(O)[C@H](CCC(=O)[*:2])N[*:1]; AEEA = NCCOCCOCC(=O)O; Aib = CC(C)(N)C(=O)O
# T1: human gastric inhibitory peptide receptor (GIPR) (human, UniProt P48546 22-466)
# T1 sequence (looked up): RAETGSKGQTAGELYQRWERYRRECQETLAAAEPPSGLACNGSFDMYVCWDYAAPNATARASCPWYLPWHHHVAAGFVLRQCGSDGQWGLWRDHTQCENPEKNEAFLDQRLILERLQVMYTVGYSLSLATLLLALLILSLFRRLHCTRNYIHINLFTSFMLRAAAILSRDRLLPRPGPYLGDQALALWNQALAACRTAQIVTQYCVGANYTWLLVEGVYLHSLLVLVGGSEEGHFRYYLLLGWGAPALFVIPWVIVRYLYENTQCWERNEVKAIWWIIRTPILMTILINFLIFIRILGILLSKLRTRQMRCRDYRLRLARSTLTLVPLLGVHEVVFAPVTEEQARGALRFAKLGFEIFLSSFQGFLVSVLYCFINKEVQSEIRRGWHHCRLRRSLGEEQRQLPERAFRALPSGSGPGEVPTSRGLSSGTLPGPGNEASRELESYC
# B1: Example 271 (peptide)
# peptide: Y[Aib]EGTFTSDYSILLDKK([AEEA-AEEA-γGlu-C18 diacid])AQ[Aib]EFIEYLIEGG-NH2
# modifications: N-terminus assumed
# SMILES: CC[C@H](C)[C@H](NC(=O)[C@H](CC(C)C)NC(=O)[C@H](Cc1ccc(O)cc1)NC(=O)[C@H](CCC(=O)O)NC(=O)[C@@H](NC(=O)[C@H](Cc1ccccc1)NC(=O)[C@H](CCC(=O)O)NC(=O)C(C)(C)NC(=O)[C@H](CCC(N)=O)NC(=O)[C@H](C)NC(=O)[C@H](CCCCNC(=O)COCCOCCNC(=O)COCCOCCNC(=O)CC[C@H](NC(=O)CCCCCCCCCCCCCCCCC(=O)O)C(=O)O)NC(=O)[C@H](CCCCN)NC(=O)[C@H](CC(=O)O)NC(=O)[C@H](CC(C)C)NC(=O)[C@H](CC(C)C)NC(=O)[C@@H](NC(=O)[C@H](CO)NC(=O)[C@H](Cc1ccc(O)cc1)NC(=O)[C@H](CC(=O)O)NC(=O)[C@H](CO)NC(=O)[C@@H](NC(=O)[C@H](Cc1ccccc1)NC(=O)[C@@H](NC(=O)CNC(=O)[C@H](CCC(=O)O)NC(=O)C(C)(C)NC(=O)[C@@H](N)Cc1ccc(O)cc1)[C@@H](C)O)[C@@H](C)O)[C@@H](C)CC)[C@@H](C)CC)C(=O)N[C@@H](CCC(=O)O)C(=O)NCC(=O)NCC(N)=O
# B2: Example 270 (peptide)
# peptide: Y[Aib]EGTFTSDYSILLDKK([AEEA-AEEA-γGlu-C18 diacid])AQ[Aib]EFIEYLIEGGPSSG-NH2
# modifications: N-terminus assumed
# SMILES: CC[C@H](C)[C@H](NC(=O)[C@H](CC(C)C)NC(=O)[C@H](Cc1ccc(O)cc1)NC(=O)[C@H](CCC(=O)O)NC(=O)[C@@H](NC(=O)[C@H](Cc1ccccc1)NC(=O)[C@H](CCC(=O)O)NC(=O)C(C)(C)NC(=O)[C@H](CCC(N)=O)NC(=O)[C@H](C)NC(=O)[C@H](CCCCNC(=O)COCCOCCNC(=O)COCCOCCNC(=O)CC[C@H](NC(=O)CCCCCCCCCCCCCCCCC(=O)O)C(=O)O)NC(=O)[C@H](CCCCN)NC(=O)[C@H](CC(=O)O)NC(=O)[C@H](CC(C)C)NC(=O)[C@H](CC(C)C)NC(=O)[C@@H](NC(=O)[C@H](CO)NC(=O)[C@H](Cc1ccc(O)cc1)NC(=O)[C@H](CC(=O)O)NC(=O)[C@H](CO)NC(=O)[C@@H](NC(=O)[C@H](Cc1ccccc1)NC(=O)[C@@H](NC(=O)CNC(=O)[C@H](CCC(=O)O)NC(=O)C(C)(C)NC(=O)[C@@H](N)Cc1ccc(O)cc1)[C@@H](C)O)[C@@H](C)O)[C@@H](C)CC)[C@@H](C)CC)C(=O)N[C@@H](CCC(=O)O)C(=O)NCC(=O)NCC(=O)N1CCC[C@H]1C(=O)N[C@@H](CO)C(=O)N[C@@H](CO)C(=O)NCC(N)=O
# B3: Example 272 (peptide)
# peptide: Y[Aib]EGTFTSDYSILLDKK([AEEA-AEEA-γGlu-C18 diacid])AQ[Aib]AFIEYLIAGGPSSG-NH2
# modifications: N-terminus assumed
# SMILES: CC[C@H](C)[C@H](NC(=O)[C@H](CC(C)C)NC(=O)[C@H](Cc1ccc(O)cc1)NC(=O)[C@H](CCC(=O)O)NC(=O)[C@@H](NC(=O)[C@H](Cc1ccccc1)NC(=O)[C@H](C)NC(=O)C(C)(C)NC(=O)[C@H](CCC(N)=O)NC(=O)[C@H](C)NC(=O)[C@H](CCCCNC(=O)COCCOCCNC(=O)COCCOCCNC(=O)CC[C@H](NC(=O)CCCCCCCCCCCCCCCCC(=O)O)C(=O)O)NC(=O)[C@H](CCCCN)NC(=O)[C@H](CC(=O)O)NC(=O)[C@H](CC(C)C)NC(=O)[C@H](CC(C)C)NC(=O)[C@@H](NC(=O)[C@H](CO)NC(=O)[C@H](Cc1ccc(O)cc1)NC(=O)[C@H](CC(=O)O)NC(=O)[C@H](CO)NC(=O)[C@@H](NC(=O)[C@H](Cc1ccccc1)NC(=O)[C@@H](NC(=O)CNC(=O)[C@H](CCC(=O)O)NC(=O)C(C)(C)NC(=O)[C@@H](N)Cc1ccc(O)cc1)[C@@H](C)O)[C@@H](C)O)[C@@H](C)CC)[C@@H](C)CC)C(=O)N[C@@H](C)C(=O)NCC(=O)NCC(=O)N1CCC[C@H]1C(=O)N[C@@H](CO)C(=O)N[C@@H](CO)C(=O)NCC(N)=O
# B4: Example 268 (peptide)
# peptide: Y[Aib]EGTFTSDYSILLDEK([AEEA-AEEA-γGlu-C18 diacid])AQ[Aib]AFIEYLIEGGPSSG-NH2
# modifications: N-terminus assumed
# SMILES: CC[C@H](C)[C@H](NC(=O)[C@H](CC(C)C)NC(=O)[C@H](Cc1ccc(O)cc1)NC(=O)[C@H](CCC(=O)O)NC(=O)[C@@H](NC(=O)[C@H](Cc1ccccc1)NC(=O)[C@H](C)NC(=O)C(C)(C)NC(=O)[C@H](CCC(N)=O)NC(=O)[C@H](C)NC(=O)[C@H](CCCCNC(=O)COCCOCCNC(=O)COCCOCCNC(=O)CC[C@H](NC(=O)CCCCCCCCCCCCCCCCC(=O)O)C(=O)O)NC(=O)[C@H](CCC(=O)O)NC(=O)[C@H](CC(=O)O)NC(=O)[C@H](CC(C)C)NC(=O)[C@H](CC(C)C)NC(=O)[C@@H](NC(=O)[C@H](CO)NC(=O)[C@H](Cc1ccc(O)cc1)NC(=O)[C@H](CC(=O)O)NC(=O)[C@H](CO)NC(=O)[C@@H](NC(=O)[C@H](Cc1ccccc1)NC(=O)[C@@H](NC(=O)CNC(=O)[C@H](CCC(=O)O)NC(=O)C(C)(C)NC(=O)[C@@H](N)Cc1ccc(O)cc1)[C@@H](C)O)[C@@H](C)O)[C@@H](C)CC)[C@@H](C)CC)C(=O)N[C@@H](CCC(=O)O)C(=O)NCC(=O)NCC(=O)N1CCC[C@H]1C(=O)N[C@@H](CO)C(=O)N[C@@H](CO)C(=O)NCC(N)=O
# B5: Example 269 (peptide)
# peptide: Y[Aib]EGTFTSDYSILLDEK([AEEA-AEEA-γGlu-C18 diacid])AQ[Aib]AFIEYLIEGG-NH2
# modifications: N-terminus assumed
# SMILES: CC[C@H](C)[C@H](NC(=O)[C@H](CC(C)C)NC(=O)[C@H](Cc1ccc(O)cc1)NC(=O)[C@H](CCC(=O)O)NC(=O)[C@@H](NC(=O)[C@H](Cc1ccccc1)NC(=O)[C@H](C)NC(=O)C(C)(C)NC(=O)[C@H](CCC(N)=O)NC(=O)[C@H](C)NC(=O)[C@H](CCCCNC(=O)COCCOCCNC(=O)COCCOCCNC(=O)CC[C@H](NC(=O)CCCCCCCCCCCCCCCCC(=O)O)C(=O)O)NC(=O)[C@H](CCC(=O)O)NC(=O)[C@H](CC(=O)O)NC(=O)[C@H](CC(C)C)NC(=O)[C@H](CC(C)C)NC(=O)[C@@H](NC(=O)[C@H](CO)NC(=O)[C@H](Cc1ccc(O)cc1)NC(=O)[C@H](CC(=O)O)NC(=O)[C@H](CO)NC(=O)[C@@H](NC(=O)[C@H](Cc1ccccc1)NC(=O)[C@@H](NC(=O)CNC(=O)[C@H](CCC(=O)O)NC(=O)C(C)(C)NC(=O)[C@@H](N)Cc1ccc(O)cc1)[C@@H](C)O)[C@@H](C)O)[C@@H](C)CC)[C@@H](C)CC)C(=O)N[C@@H](CCC(=O)O)C(=O)NCC(=O)NCC(N)=O
# B6: Example 273 (peptide)
# peptide: Y[Aib]EGTFTSDYSILLDKK([AEEA-AEEA-γGlu-C18 diacid])AQ[Aib]AFIEYLIAGG-NH2
# modifications: N-terminus assumed
# SMILES: CC[C@H](C)[C@H](NC(=O)[C@H](CC(C)C)NC(=O)[C@H](Cc1ccc(O)cc1)NC(=O)[C@H](CCC(=O)O)NC(=O)[C@@H](NC(=O)[C@H](Cc1ccccc1)NC(=O)[C@H](C)NC(=O)C(C)(C)NC(=O)[C@H](CCC(N)=O)NC(=O)[C@H](C)NC(=O)[C@H](CCCCNC(=O)COCCOCCNC(=O)COCCOCCNC(=O)CC[C@H](NC(=O)CCCCCCCCCCCCCCCCC(=O)O)C(=O)O)NC(=O)[C@H](CCCCN)NC(=O)[C@H](CC(=O)O)NC(=O)[C@H](CC(C)C)NC(=O)[C@H](CC(C)C)NC(=O)[C@@H](NC(=O)[C@H](CO)NC(=O)[C@H](Cc1ccc(O)cc1)NC(=O)[C@H](CC(=O)O)NC(=O)[C@H](CO)NC(=O)[C@@H](NC(=O)[C@H](Cc1ccccc1)NC(=O)[C@@H](NC(=O)CNC(=O)[C@H](CCC(=O)O)NC(=O)C(C)(C)NC(=O)[C@@H](N)Cc1ccc(O)cc1)[C@@H](C)O)[C@@H](C)O)[C@@H](C)CC)[C@@H](C)CC)C(=O)N[C@@H](C)C(=O)NCC(=O)NCC(N)=O
# Target: human GLP-1 receptor (GLP-1R) (human, UniProt P43220 24-463)
# Experiment: cell-based or functional assay
hGLP1R cAMP EC50 ratio,hGLP1R cAMP Rel EC50 [pM],Binder
1.35,35.2,B1
0.4,128,B2
1.19,43.5,B3
0.935,57.2,B4
0.828,59.5,B5
1.85,35.2,B6

# Target: T1, human gastric inhibitory peptide …
# Experiment: cell-based or functional assay
hGIPR cAMP EC50 ratio,hGIPR cAMP Rel EC50 [pM],Binder
0.614,334,B1
0.627,328,B2
2.97,46.4,B3
0.851,239,B4
0.825,257,B5
2.15,79,B6

# — US20220048967A1 (published 2022)
